Publication PMC7701066
One block for each substance: values may come before it.

Assays:
[1] = target: FLAG-tagged wild-type central Reelin fragment (Reelin repeats 3–6), Fc removed (UniProt Q60841); test: SEC; Superose 6 Increase 10/300 GL, A280 traces of heterodimer, FLAG-WT homodimer and His6-K2467A homodimer
[2] = target: His6-tagged K2467A mutant central Reelin fragment (Reelin repeats 3–6), Fc removed (UniProt Q60841); test: as above
[3] = target: Fc-fused Reelin heterodimer (FLAG-WT / His6-K2467A central fragment, Fc retained) (UniProt Q60841); test: BLI; BLItz; Fc-fused heterodimer on a Protein A biosensor; dilution series (11 concentrations) of ecto-VLDLR; 20 mM Hepes pH 7.4, 150 mM NaCl, 1 mM CaCl2, 0.2% Tween20, 0.1% BSA; association 45 s, dissociation 60 s without CaCl2 and with 1 mM EDTA; maximum responses fitted to one site specific binding; triplicate

stoichiometry N [1]: 2
Substance: FLAG-tagged wild-type central Reelin fragment (Reelin repeats 3–6), Fc removed (from UniProt Q60841 27-3461) (domain or fragment)

stoichiometry N [2]: 2
Substance: His6-tagged K2467A mutant central Reelin fragment (Reelin repeats 3–6), Fc removed (from UniProt Q60841 27-3461) (domain or fragment)

Kd [3]: 129 nM
Substance: purified extracellular domain of VLDLR (very-low density lipoprotein receptor) (from UniProt P98155 28-797)
